Experiments:
[1] = molecular target: mouse immunoglobulin (MIgG); test: photometric; PB-GAM 12 ug/test, soluble MIgG 10 ug/test, BIOMAG-MIgG 30 ug/test
[2] = molecular target: mouse immunoglobulin (MIgG); test: photometric; PB-GAM 12 ug/test, soluble MIgG 0, BIOMAG-MIgG 30 ug/test
[3] = molecular target: mouse immunoglobulin (MIgG); test: photometric; PB-GAM 12 ug/test, BIOMAG-MIgG 100 ug/test
[4] = molecular target: mouse immunoglobulin (MIgG); test: 50 ul conjugate (80 ug/ml) + BIOMAG-MIgG 1 mg/test; soluble MIgG 0
[5] = molecular target: mouse immunoglobulin (MIgG); test: photometric; PB-GAM 40 ug/test, soluble MIgG 0, BIOMAG-MIgG 100 ug/test
[6] = molecular target: mouse immunoglobulin (MIgG); test: photometric; PB-GAM 40 ug/test, soluble MIgG 10 ug/test, BIOMAG-MIgG 100 ug/test
rabbit IgG (RIgG) [7] = test: microtiter displacement assay; conjugate prebound to RIgG-coated wells; MIgG 0 ng/test (baseline)
[8] = molecular target: mouse immunoglobulin (MIgG); test: binding to BIOMAG-MIgG, solid phase in pseudo-excess; fluorescence
[9] = molecular target: mouse immunoglobulin (MIgG); test: photometric; PB-GAM 40 ug/test, soluble MIgG 0, BIOMAG-MIgG 300 ug/test
[10] = molecular target: mouse immunoglobulin (MIgG); test: photometric; PB-GAM 3 ug/test, soluble MIgG 0, BIOMAG-MIgG 300 ug/test
[11] = molecular target: mouse immunoglobulin (MIgG); test: photometric; PB-GAM 40 ug/test, soluble MIgG 10 ug/test, BIOMAG-MIgG 300 ug/test
[12] = molecular target: mouse immunoglobulin (MIgG); test: photometric; PB-GAM 40 ug/test, soluble MIgG 10 ug/test, BIOMAG-MIgG 30 ug/test
[13] = molecular target: mouse immunoglobulin (MIgG); test: photometric; PB-GAM 12 ug/test, soluble MIgG 10 ug/test, BIOMAG-MIgG 300 ug/test
[14] = molecular target: mouse immunoglobulin (MIgG); test: photometric; PB-GAM 40 ug/test, BIOMAG-MIgG 300 ug/test
[15] = molecular target: mouse immunoglobulin (MIgG); test: photometric; PB-GAM 3 ug/test, soluble MIgG 10 ug/test, BIOMAG-MIgG 30 ug/test
[16] = molecular target: mouse immunoglobulin (MIgG); test: photometric; PB-GAM 12 ug/test, BIOMAG-MIgG 30 ug/test
[17] = molecular target: mouse immunoglobulin (MIgG); test: photometric; PB-GAM 3 ug/test, BIOMAG-MIgG 30 ug/test
[18] = molecular target: mouse immunoglobulin (MIgG); test: 50 ul conjugate (80 ug/ml) + BIOMAG-MIgG 1 mg/test; soluble MIgG 10 ug/test
[19] = molecular target: mouse immunoglobulin (MIgG); test: photometric; PB-GAM 3 ug/test, soluble MIgG 10 ug/test, BIOMAG-MIgG 100 ug/test
rabbit IgG (RIgG) [20] = test: displacement assay; conjugate prebound to BIOMAG-RIgG; MIgG 0 ng/test (baseline)
[21] = molecular target: mouse immunoglobulin (MIgG); test: photometric; PB-GAM 40 ug/test, BIOMAG-MIgG 100 ug/test
[22] = molecular target: mouse immunoglobulin (MIgG); test: photometric; PB-GAM 12 ug/test, soluble MIgG 0, BIOMAG-MIgG 100 ug/test
[23] = molecular target: mouse immunoglobulin (MIgG); test: photometric; PB-GAM 12 ug/test, soluble MIgG 0, BIOMAG-MIgG 300 ug/test
[24] = molecular target: mouse immunoglobulin (MIgG); test: competitive fluoroimmunoassay; 250 ng conjugate, 250 ug BIOMAG-MIgG per test; soluble MIgG 1 ng/test
[25] = molecular target: mouse immunoglobulin (MIgG); test: photometric; PB-GAM 12 ug/test, BIOMAG-MIgG 300 ug/test
[26] = molecular target: mouse immunoglobulin (MIgG); test: photometric; PB-GAM 3 ug/test, soluble MIgG 10 ug/test, BIOMAG-MIgG 300 ug/test
[27] = molecular target: mouse immunoglobulin (MIgG); test: competitive fluoroimmunoassay; 250 ng conjugate, 250 ug BIOMAG-MIgG per test; soluble MIgG 1,000 ng/test
[28] = molecular target: mouse immunoglobulin (MIgG); test: photometric; PB-GAM 12 ug/test, soluble MIgG 10 ug/test, BIOMAG-MIgG 100 ug/test
[29] = molecular target: mouse immunoglobulin (MIgG); test: photometric; PB-GAM 40 ug/test, soluble MIgG 0, BIOMAG-MIgG 30 ug/test
[30] = molecular target: mouse immunoglobulin (MIgG); test: photometric; PB-GAM 3 ug/test, soluble MIgG 0, BIOMAG-MIgG 30 ug/test
[31] = molecular target: mouse immunoglobulin (MIgG); test: photometric; PB-GAM 3 ug/test, BIOMAG-MIgG 300 ug/test
[32] = molecular target: mouse immunoglobulin (MIgG); test: 50 ul conjugate (80 ug/ml) + BIOMAG-MIgG 1 mg/test; soluble MIgG 1 ng/test
[33] = molecular target: mouse immunoglobulin (MIgG); test: photometric; PB-GAM 3 ug/test, BIOMAG-MIgG 100 ug/test
[34] = molecular target: mouse immunoglobulin (MIgG); test: competitive fluoroimmunoassay; 250 ng conjugate, 250 ug BIOMAG-MIgG per test; soluble MIgG 10 ng/test
[35] = molecular target: mouse immunoglobulin (MIgG); test: photometric; PB-GAM 40 ug/test, BIOMAG-MIgG 30 ug/test
[36] = molecular target: mouse immunoglobulin (MIgG); test: photometric; PB-GAM 3 ug/test, soluble MIgG 0, BIOMAG-MIgG 100 ug/test
[37] = molecular target: mouse immunoglobulin (MIgG); test: competitive fluoroimmunoassay; 250 ng conjugate, 250 ug BIOMAG-MIgG per test; soluble MIgG 0
[38] = molecular target: mouse immunoglobulin (MIgG); test: competitive fluoroimmunoassay; 250 ng conjugate, 250 ug BIOMAG-MIgG per test; soluble MIgG 100 ng/test
[39] = molecular target: phycobilisome-GAM conjugate (glutaraldehyde-stabilized P. cruentum phycobilisomes conjugated to affinity-purified, Fc-specific goat anti-mouse IgG); test: microtiter displacement of conjugate prebound to RIgG-coated wells (competitor RIgG); MIgG 10 ng/test
[40] = molecular target: phycobilisome-GAM conjugate (glutaraldehyde-stabilized P. cruentum phycobilisomes conjugated to affinity-purified, Fc-specific goat anti-mouse IgG); test: displacement of conjugate prebound to BIOMAG-RIgG (competitor RIgG); MIgG 100 ng/test
[41] = molecular target: phycobilisome-GAM conjugate (glutaraldehyde-stabilized P. cruentum phycobilisomes conjugated to affinity-purified, Fc-specific goat anti-mouse IgG); test: displacement of conjugate prebound to BIOMAG-RIgG (competitor RIgG); MIgG 10 ng/test
[42] = molecular target: phycobilisome-GAM conjugate (glutaraldehyde-stabilized P. cruentum phycobilisomes conjugated to affinity-purified, Fc-specific goat anti-mouse IgG); test: displacement of conjugate prebound to BIOMAG-RIgG (competitor RIgG); MIgG 10,000 ng/test
[43] = molecular target: phycobilisome-GAM conjugate (glutaraldehyde-stabilized P. cruentum phycobilisomes conjugated to affinity-purified, Fc-specific goat anti-mouse IgG); test: microtiter displacement of conjugate prebound to RIgG-coated wells (competitor RIgG); MIgG 1 ng/test
[44] = molecular target: phycobilisome-GAM conjugate (glutaraldehyde-stabilized P. cruentum phycobilisomes conjugated to affinity-purified, Fc-specific goat anti-mouse IgG); test: microtiter displacement of conjugate prebound to RIgG-coated wells (competitor RIgG); MIgG 100 ng/test
[45] = molecular target: phycobilisome-GAM conjugate (glutaraldehyde-stabilized P. cruentum phycobilisomes conjugated to affinity-purified, Fc-specific goat anti-mouse IgG); test: displacement of conjugate prebound to BIOMAG-RIgG (competitor RIgG); MIgG 1 ng/test
[46] = molecular target: phycobilisome-GAM conjugate (glutaraldehyde-stabilized P. cruentum phycobilisomes conjugated to affinity-purified, Fc-specific goat anti-mouse IgG); test: microtiter displacement of conjugate prebound to RIgG-coated wells (competitor RIgG); MIgG 1,000 ng/test
[47] = molecular target: phycobilisome-GAM conjugate (glutaraldehyde-stabilized P. cruentum phycobilisomes conjugated to affinity-purified, Fc-specific goat anti-mouse IgG); test: displacement of conjugate prebound to BIOMAG-RIgG (competitor RIgG); MIgG 1,000 ng/test
[48] = molecular target: mouse immunoglobulin (MIgG); test: binding to BIOMAG-MIgG; fluorescence

Q: Which results are given for “phycobilisome-GAM conjugate (glutaraldehyde-stabilized P. cruentum phycobilisomes conjugated to affinity-purified, Fc-specific goat anti-mouse IgG) (antibody)”?
A: Supernatant Absorbance [1]: 66 mAU/ml; Supernatant Absorbance [2]: 63 mAU/ml; % binding [3]: 20.6%; % bound [4]: 42.1%; Supernatant E666 [4]: 2.24e+06 cps; Supernatant Absorbance [5]: 200 mAU/ml; Supernatant Absorbance [6]: 212 mAU/ml; E666 (fluorescence) (rabbit IgG (RIgG) [7]): 343000 cps; % specific binding [8]: < 60%; Supernatant Absorbance [9]: 173 mAU/ml; Supernatant Absorbance [10]: 4 mAU/ml; Supernatant Absorbance [11]: 213 mAU/ml; Supernatant Absorbance [12]: 210 mAU/ml; Supernatant Absorbance [13]: 66 mAU/ml; % binding [14]: 18.8%; Supernatant Absorbance [15]: 12 mAU/ml; % binding [16]: 4.5%; % binding [17]: 0%; % bound [18]: 0%; MIgG inhibition [18]: 1.63e+06 cps; Supernatant E666 [18]: 3.88e+06 cps; Supernatant Absorbance [19]: 12 mAU/ml; E666 (supernatant fluorescence) (rabbit IgG (RIgG) [20]): 1.05e+06 cps; % binding [21]: 4.7%; Supernatant Absorbance [22]: 54 mAU/ml; Supernatant Absorbance [23]: 44 mAU/ml; % bound [24]: 19%; E666 [24]: 400000 cps; inhibition [24]: 26000 cps; % binding [25]: 33.3%; Supernatant Absorbance [26]: 12 mAU/ml; % bound [27]: 0%; E666 [27]: 494000 cps; inhibition [27]: 120000 cps; Supernatant Absorbance [28]: 68 mAU/ml; Supernatant Absorbance [29]: 210 mAU/ml; Supernatant Absorbance [30]: 12 mAU/ml; % binding [31]: 66.7%; % bound [32]: 28%; MIgG inhibition [32]: 547000 cps; Supernatant E666 [32]: 2.79e+06 cps; % binding [33]: 16.7%; % bound [34]: 11.1%; E666 [34]: 439000 cps; inhibition [34]: 65000 cps; % binding [35]: 0%; Supernatant Absorbance [36]: 10 mAU/ml; % bound [37]: 24.3%; E666 [37]: 374000 cps; % bound [38]: 0.8%; E666 [38]: 490000 cps; inhibition [38]: 116000 cps

Q: For mouse immunoglobulin (MIgG) (antibody), which % of maximal displacement [39] is on record?
A: The % of maximal displacement was 73%.

Q: What about the E666 (fluorescence) [39] of the same substance?
A: The E666 (fluorescence) was 478000 cps.

Q: What about the displacement [39] of the same substance?
A: Its displacement is 135000 cps.

Q: And the % of maximal displacement [40]?
A: Its % of maximal displacement is 35.3%.

Q: What about the E666 (supernatant fluorescence) [40] of the same substance?
A: Its E666 (supernatant fluorescence) is 1.16e+06 cps.

Q: What about the displacement [40] of the same substance?
A: The displacement was 109000 cps.

Q: What about the % of maximal displacement [41] of the same substance?
A: The % of maximal displacement was 10.4%.

Q: What about the E666 (supernatant fluorescence) [41] of the same substance?
A: Its E666 (supernatant fluorescence) is 1.08e+06 cps.

Q: What about the displacement [41] of the same substance?
A: The displacement was 32000 cps.

Q: What about the % of maximal displacement [42] of the same substance?
A: Its % of maximal displacement is 100%.

Q: What about the E666 (supernatant fluorescence) [42] of the same substance?
A: The E666 (supernatant fluorescence) was 1.36e+06 cps.

Q: What about the displacement [42] of the same substance?
A: The displacement was 309000 cps.

Q: And the % of maximal displacement [43]?
A: Its % of maximal displacement is 36.8%.

Q: What about the E666 (fluorescence) [43] of the same substance?
A: Its E666 (fluorescence) is 411000 cps.

Q: What about the displacement [43] of the same substance?
A: Its displacement is 68000 cps.

Q: What about the % of maximal displacement [44] of the same substance?
A: Its % of maximal displacement is 98.4%.

Q: What about the E666 (fluorescence) [44] of the same substance?
A: The E666 (fluorescence) was 525000 cps.

Q: And the displacement [44]?
A: Its displacement is 182000 cps.

Q: And the % of maximal displacement [45]?
A: The % of maximal displacement was 6.1%.

Q: And the E666 (supernatant fluorescence) [45]?
A: Its E666 (supernatant fluorescence) is 1.07e+06 cps.

Q: And the displacement [45]?
A: The displacement was 19000 cps.

Q: What about the % of maximal displacement [46] of the same substance?
A: Its % of maximal displacement is 100%.

Q: And the E666 (fluorescence) [46]?
A: The E666 (fluorescence) was 528000 cps.

Q: And the displacement [46]?
A: The displacement was 185000 cps.

Q: What about the % of maximal displacement [47] of the same substance?
A: The % of maximal displacement was 62.5%.

Q: What about the E666 (supernatant fluorescence) [47] of the same substance?
A: The E666 (supernatant fluorescence) was 1.25e+06 cps.

Q: What about the displacement [47] of the same substance?
A: The displacement was 193000 cps.

Q: How did the % specific binding [48] turn out when “GAM antibody conjugated by glutaraldehyde to formaldehyde-stabilized phycobilisomes” was run?
A: The % specific binding was 60%.

From US20030134325A1
